In patent publication US20190309079A1 (Regeneron, published 2019):

T1: human LEPR CRH1 (D1,D2)-MMH (human, UniProt P48357 22-339, limits assumed)
T1 construct: domain: CRH1 (D1,D2)
T1 sequence (looked up): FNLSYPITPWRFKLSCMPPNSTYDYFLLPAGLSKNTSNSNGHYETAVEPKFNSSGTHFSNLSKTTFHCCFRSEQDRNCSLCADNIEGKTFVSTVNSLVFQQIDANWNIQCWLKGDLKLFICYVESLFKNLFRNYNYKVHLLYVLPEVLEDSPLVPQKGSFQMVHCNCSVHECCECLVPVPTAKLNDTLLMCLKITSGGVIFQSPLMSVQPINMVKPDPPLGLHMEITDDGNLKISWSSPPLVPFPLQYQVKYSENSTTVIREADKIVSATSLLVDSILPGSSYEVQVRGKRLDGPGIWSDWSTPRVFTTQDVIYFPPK

T2: human LEPR FNIII-MMH (human, UniProt P48357 636-839, limits assumed)
T2 construct: domain: FNIII
T2 sequence (looked up): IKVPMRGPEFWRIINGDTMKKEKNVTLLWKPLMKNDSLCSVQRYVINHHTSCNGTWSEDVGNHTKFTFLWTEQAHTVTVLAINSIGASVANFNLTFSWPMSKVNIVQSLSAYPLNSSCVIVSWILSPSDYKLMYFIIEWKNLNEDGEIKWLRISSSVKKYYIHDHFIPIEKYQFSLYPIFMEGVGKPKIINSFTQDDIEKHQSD

T3: human LEPR Ig-CRH2-FNIII-MMH (human, UniProt P48357 330-839, limits assumed)
T3 construct: domain: Ig-CRH2-FNIII
T3 sequence (looked up): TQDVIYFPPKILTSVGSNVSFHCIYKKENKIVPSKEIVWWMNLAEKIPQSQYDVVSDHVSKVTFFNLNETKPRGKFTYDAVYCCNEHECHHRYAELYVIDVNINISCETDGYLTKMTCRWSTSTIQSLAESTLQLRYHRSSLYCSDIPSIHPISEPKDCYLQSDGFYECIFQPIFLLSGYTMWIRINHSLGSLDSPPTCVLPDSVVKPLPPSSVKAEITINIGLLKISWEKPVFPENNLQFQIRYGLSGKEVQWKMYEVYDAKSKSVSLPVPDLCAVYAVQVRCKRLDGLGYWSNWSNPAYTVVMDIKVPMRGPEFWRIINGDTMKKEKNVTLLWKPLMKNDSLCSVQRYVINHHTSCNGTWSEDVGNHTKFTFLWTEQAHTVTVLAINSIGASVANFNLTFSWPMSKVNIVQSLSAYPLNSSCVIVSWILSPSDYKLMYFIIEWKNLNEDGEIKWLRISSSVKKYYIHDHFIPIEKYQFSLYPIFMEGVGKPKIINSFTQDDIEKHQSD

T4: human LEPR CRH1 (D1)-MMH (human, UniProt P48357 22-229, limits assumed)
T4 construct: domain: CRH1 (D1)
T4 sequence (looked up): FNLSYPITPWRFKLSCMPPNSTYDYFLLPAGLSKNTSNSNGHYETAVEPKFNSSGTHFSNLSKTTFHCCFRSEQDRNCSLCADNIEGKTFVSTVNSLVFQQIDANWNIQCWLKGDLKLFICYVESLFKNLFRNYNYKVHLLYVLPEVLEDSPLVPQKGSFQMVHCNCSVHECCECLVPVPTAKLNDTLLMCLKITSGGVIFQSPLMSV

T5: human LEPR CRH1-Ig (D1,D2,D3)-MMH (human, UniProt P48357 22-427, limits assumed)
T5 construct: domain: CRH1-Ig (D1,D2,D3); also called human LEPR CRH1 (D1,D2,D3)-MMH
T5 sequence (looked up): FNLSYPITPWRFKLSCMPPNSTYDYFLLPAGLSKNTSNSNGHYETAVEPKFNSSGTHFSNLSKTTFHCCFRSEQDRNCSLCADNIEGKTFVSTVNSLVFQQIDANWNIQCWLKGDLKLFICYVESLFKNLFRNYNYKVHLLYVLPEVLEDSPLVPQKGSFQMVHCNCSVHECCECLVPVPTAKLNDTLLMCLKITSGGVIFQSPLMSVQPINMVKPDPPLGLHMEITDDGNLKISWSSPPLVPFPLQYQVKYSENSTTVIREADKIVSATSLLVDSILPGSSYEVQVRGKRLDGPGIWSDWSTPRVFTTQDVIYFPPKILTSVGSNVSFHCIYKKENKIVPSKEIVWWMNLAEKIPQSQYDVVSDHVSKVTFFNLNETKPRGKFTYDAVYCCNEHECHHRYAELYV


Key:
Test in all cases: Luminex, myc-captured protein on beads
[1] = target: T1, human LEPR CRH1 (D1,D2)-MMH
Experimental: (§1) Aliquots of microspheres with immobilized anti-myc monoclonal antibodies, prepared as described above, were added individually to 1 mL of the each of these protein supernatants. The microspheres were gently mixed, incubated for two hours at 25° C., washed twice with 1 mL of DBPS, centrifuged to remove the supernatant and finally resuspended in 1 mL of DPBS buffer. […] of anti-myc IgG coupled microspheres from individual reactions with full length human LEPR and with each of the human LEPR domain proteins were withdrawn and mixed together in 3.6 mL of PBS+20 mg/mL BSA+0.05% sodium azide (blocking buffer).
(§2) From this mixed pool, 75 μL of microspheres were plated per well on a 96 well filter plate (Millipore, Cat. No: MSBVN1250) and mixed with 25 μL of individual anti-human LEPR monoclonal antibodies (0.5 or 5 μg/mL), incubated for two hours at 25° C. and then washed twice with 200 μL of DPBS with 0.05% Tween 20 (washing buffer). […] After 30 minutes, the samples were washed twice with 200 µL of washing buffer and resuspended in 150 μL of wash buffer. The Median Fluorescence intensity (MFI) of the microspheres was measured in a Luminex Analyzer.

[2] = target: T6, human LEPR extracellular domain expressed with a C-terminal myc-myc-hexahistidine tag (hLEPR.mmh) (human, UniProt P48357 22-839)
T6 construct: tag included in the entry; also called human LEPR-MMH; monomeric human LEPR
Experimental: as §1, §2

human LEPR FNIII-MMH = target: T2, human LEPR FNIII-MMH
Experimental: as §1, §2

[3] = target: T3, human LEPR Ig-CRH2-FNIII-MMH
Experimental: as §1, §2

human LEPR CRH1 (D1)-MMH = target: T4, human LEPR CRH1 (D1)-MMH
Experimental: as §1, §2

[4] = target: T5, human LEPR CRH1-Ig (D1,D2,D3)-MMH
Experimental: as §1, §2

Binder | Luminex MFI [1] [MFI] | Luminex MFI [2] [MFI] | Luminex MFI (human LEPR FNIII-MMH) [MFI] | Luminex MFI [3] [MFI] | Luminex MFI (human LEPR CRH1 (D1)-MMH) [MFI] | Luminex MFI [4] [MFI]
H4H16650P2 (antibody, V domains shown) VH: QVQLVESGGGVVQPGKSLRLSCVASGFTFSSDAMYWVRQAPGKGLEWVAVIYYDGNYQYYEDSVKGRFTISRDNSQNTLDLQMNSLRVDDTAVYFCARLNWDYWYLDLWGRGTLVTVSS VL: not shown | 4720 | 7600 | 6 | 110 | 8 | 2560
H4H16679P2 (antibody, V domains shown) VH: QVQLVESGGGVVQPGRSLRLSCTASGFTFSSYAMYWVRQAPGKGLEWVSVIYYDGSYKYYADSVKGRFTISRDNSKNTLYLQMDSLRAEDTAVYYCASYNWNYWYFDFWGRGTLVTVSS VL: not shown | 4390 | 7510 | 10 | 42 | 12 | 2800
H4H17321P2 (antibody, V domains shown) VH: QVQLVESGGGVVQPGRSLRLSCEASGFSSSDNAMYWVRQAPGKGLEWVSVIYHDGSYKYYEDSVKGRFTIARDNSKNTLYLQMNSLRAEDTAVYYCARYNWNHWYFDVWGRGTLVTVSS VL: not shown | 2650 | 4700 | 40 | 14 | 9 | 1750
H4H17319P2 (antibody, V domains shown, also called REGN4461) VH: QVQLVESGGSVVQPGRSLRLSCAASGFTFSTYAMYWVRQTPGKGLEWVAVLYSDGSNKYYIDSVKGRFTISRDTSTNTLYLQMSSLRADDSALYYCARLNWDYWYFDLWGRGTLVTVSS VL: not shown | 1250 | 3300 | 20 | 8 | 8 | 938
H4H18446P2 (antibody, human IgG4, V domains shown, human IgG4 Fc) VH: EVQLVESGGGLVQPGGSLRLSCAASGFTFSNYGMTWVRQAPGKGLEWVSAITGGGGSTYYSNSVKGRFTISRDNSKNTVYLRMNSVRAEDTAVYYCAKYKWNFVDDWGQGTTVTVSS VL: not shown | 682 | 10500 | 32 | 16900 | 17 | –
H4H18449P2 (antibody, human IgG4, V domains shown, human IgG4 Fc) VH: EVQLVESGGGLVQPGGSLRLSCVASGFTFNKYDMHWVRQTTGKGLEWVSGIDTDGDTYYPGSVKGRFTISRENAENSLYLQMNGLRVGDTAVYYCARWPWSGFYGAFDIWGQGTMVTVSS VL: not shown | 2930 | 7980 | 13 | 43 | 20 | 2060
H4H18417P2 (antibody, V domains shown) VH: QVQLVESGGGVVQPGRSLRLSCAASGFTFSTYGMHWVRQAPGKGLEWVSVISYDESNKYYADSVKGRFTISRDNSKNALYLQMNSLRNEDTAVYYCARDRPFGLVTGWFDPWGQGTLVTVSS VL: not shown | 16000 | 4890 | 14 | 37 | 10 | 3330
H4H18438P2 (antibody, V domains shown) VH: QVQLVESGGGVVQPGRSLRLSCAASGFSFNTYGMHWVRQAPGKGLEWVTIIWYDGSIKYYADSVKGRFTISRDNSKNTLYLQMNSLRAEDTAVYYCARGGYSGYLYFDYWGQGTLVTVSS VL: not shown | 18900 | 6250 | 25 | – | 13 | 6570
H4H18445P2 (antibody, human IgG4, V domains shown, human IgG4 Fc) VH: QVQLQESGPGLVKPSQTLSLTCTVSGGSISSGGDYWSWIRQLPGKGLEWIGYIYYSGSAYYNPSLKSRGTISIDTSKNQFSLKLTSVTAADTAVYFCVKLRFLEWFLGGWFGPWGQGTLVTVSS VL: not shown | 30 | 6570 | 230 | 14500 | 12 | 22
